Data published in patent US20260374875 (published 2026).
Positions count from the first letter of the chain named.

T1: monkey FcRn (monkey, UniProt Q8SPV9)
T1 chain 1: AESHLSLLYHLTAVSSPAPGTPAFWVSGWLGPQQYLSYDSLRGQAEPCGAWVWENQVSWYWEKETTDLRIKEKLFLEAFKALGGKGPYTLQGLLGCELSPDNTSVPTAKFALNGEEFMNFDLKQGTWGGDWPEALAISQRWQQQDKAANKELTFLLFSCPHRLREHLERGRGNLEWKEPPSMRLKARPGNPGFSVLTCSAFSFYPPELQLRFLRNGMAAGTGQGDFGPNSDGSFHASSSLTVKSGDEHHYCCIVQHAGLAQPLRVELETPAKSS
T1 chain 2: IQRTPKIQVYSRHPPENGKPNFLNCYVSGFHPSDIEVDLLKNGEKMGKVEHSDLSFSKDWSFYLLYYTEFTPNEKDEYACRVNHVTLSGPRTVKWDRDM

T2: mouse FcRn (mouse, UniProt Q61559)
T2 chain 1: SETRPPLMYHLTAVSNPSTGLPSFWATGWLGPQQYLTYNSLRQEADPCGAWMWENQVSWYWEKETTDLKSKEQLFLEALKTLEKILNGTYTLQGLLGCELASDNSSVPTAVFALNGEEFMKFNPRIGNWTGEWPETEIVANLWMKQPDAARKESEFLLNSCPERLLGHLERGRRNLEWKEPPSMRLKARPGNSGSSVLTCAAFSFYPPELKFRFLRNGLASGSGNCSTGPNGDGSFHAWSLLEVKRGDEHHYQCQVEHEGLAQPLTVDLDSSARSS
T2 chain 2: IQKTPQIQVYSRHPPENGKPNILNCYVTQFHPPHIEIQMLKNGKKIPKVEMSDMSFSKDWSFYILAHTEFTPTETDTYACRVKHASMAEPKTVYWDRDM

B1: B14 H11A4.1 (mAb) (antibody)
chain 1: MGWSCIILFLVATATGVHSQVQLVESGGGLVKPGGSLRLSCAASGFTFSDYYMSWIRQAPGKGLEWVSYITYSGSTIYYADSVKGRFTISRDNAKSSLYLQMNSLRAEDTAVYYCARDRGTTMVPFDYWGQGTLVTVSSASTKGPSVFPLAPSSKSTSGGTAALGCLVKDYFPEPVTVSWNSGALTSGVHTFPAVLQSSGLYSLSSVVTVPSSSLGTQTYICNVNHKPSNTKVDKKVEPKSCDKTHTCPPCPAPEAAGGPSVFLFPPKPKDTLMISRTPEVTCVVVDVSHEDPEVKFNWYVDGVEVHNAKTKPREEQYNSTYRVVSVLNPYHQDWLNGKEYKCKVSNKALGAPIEKTISKAKGQPREPQVYTLPPSREEMTKNQVSLTCLVKGFYPSDIAVEWESNGQPENNYKTTPPVLDSDGSFFLYSKLTVDKSRWQQGNVFSCSVMHEALRWHYTQKSLSLSPGK
chain 2: not shown
B2: W11A4.1 (Dimer) (protein)
chain: MGWSCIILFLVATATGVHSSDKTHTCPPCPAPEAAGGPSVFLFPPKPKDTLMISRTPEVTCVVVDVSHEDPEVKFNWYVDGVEVHNAKTKPREEQYNSTYRVVSVLNPYHQDWLNGKEYKCKVSNKALGAPIEKTISKAKGQPREPQVYTLPPSRDELTKNQVSLTCLVKGFYPSDIAVEWESNGQPENNYKTTPPVLDSDGSFFLYSKLTVDKSRWQQGNVFSCSVMHEALRWHYTQKSLSLSPGKGGGSGGGSGGGSGGGSSGGGSSSDKTHTSPPSPAPEAAGGPSVFLFPPKPKDTLMISRTPEVTCVVVDVSHEDPEVKFNWYVDGVEVHNAKTKPREEQYNSTYRVVSVLNPYHQDWLNGKEYKCKVSNKALGAPIEKTISKAKGQPREPQVYTLPPSRDELTKNQVSLTCLVKGFYPSDIAVEWESNGQPENNYKTTPPVLDSDGSFFLYSKLTVDKSRWQQGNVFSCSVMHEALRWHYTQKSLSLSPGK
B3: H11A4.3 (monomer) (protein)
chain: MGWSCIILFLVATATGVHSSDKTHTCPPCPAPEAAGGPSVFLFPPKPKDTLYITREPEVTCVVVDVSHEDPEVKFNWYVDGVEVHNAKTKPREEQYNSTYRVVSVLNPYHQDWLNGKEYKCKVSNKALGAPIEKTISKAKGQPREPQVYTLPPSREEMTKNQVSLTCLVKGFYPSDIAVEWESNGQPENNYKTTPPVLDSDGSFFLYSKLTVDKSRWQQGNVFSCSVMHEALRWHYTQKSLSLSPGK
B4: A3 H11A4.3 (mAb) (antibody)
chain 1: not shown
chain 2: MGWSCIILFLVATATGVHSQSALTQPASVSGSPGQSITISCTGTSSDVGGYNYVSWYQQHPGKAPKLMIYDVSKRPSGVSNRFSGSKSGNTASLTISGLQSEDEADYYCNSLTSISTWVFGGGTKLTVLGQPKANPTVTLFPPSSEELQANKATLVCLISDFYPGAVTVAWKADGSPVKAGVETTKPSKQSNNKYAASSYLSLTPEQWKSHRSYSCQVTHEGSTVEKTVAPTECS
B5: A3 H11A4.2 (mAb) (antibody)
chain 1: not shown
chain 2: B4 chain 2
B6: A3 H11A4.1 (mAb) (antibody)
chain 1: not shown
chain 2: B4 chain 2
B7: H11A4.1 (Monomer) (protein)
chain: B3 chain with Y52M, T54S, E56T
B8: B14 H11A4.3 (mAb) (antibody)
chain 1: B1 chain 1 with M274Y, S276T, T278E
chain 2: not shown
B9: B14 H11A4.2 (mAb) (antibody)
chain 1: B1 chain 1 with A256L, A257L, M274Y, S276T, T278E, G351P
chain 2: not shown
B10: H11A4.2 (monomer) (protein)
chain: B3 chain with A34L, A35L, G129P, E156D, M158L

Columns and labels:
monkey FcRn = target: T1, monkey FcRn; assay: SPR, pH 6.0, 25C
human FcRn [1] = target: T3, human FcRn (human, UniProt P55899); assay: SPR, pH 6.0, 25C
mouse FcRn = target: T2, mouse FcRn; assay: SPR, pH 6.0, 25C
human FcRn [2] = target: T3, human FcRn; assay: SPR, pH 7.4, 25C
human FcRn [3] = target: T3, human FcRn; assay: SPR, pH 6.0, 25C; remark: listed apart in the source

Binder | Kd (monkey FcRn) | Kd (human FcRn [1]) | Kd (mouse FcRn) | Kd (human FcRn [2]) | Kd (human FcRn [3])
B1 | 4.26 nM | 3.3 nM | 0.189 nM | 34.1 nM | 2.85 nM
B2 | – | – | – | – | 1.68 nM
B3 | 1.38 nM | 0.288 nM | 0.839 nM | 7.62 nM | 0.288 nM
B4 | 3.76 nM | 0.803 nM | 2.57 nM | 18.8 nM | 0.803 nM
B5 | 0.914 nM | 1.04 nM | 0.113 nM | 11.2 nM | 1.04 nM
B6 | 3.13 nM | 2.6 nM | 0.165 nM | 29.6 nM | 1.93 nM
B7 | 0.928 nM | 0.7 nM | 0.0918 nM | 15.2 nM | 0.559 nM
B8 | 2.45 nM | 1.23 nM | 0.782 nM | 15.1 nM | 1.23 nM
B9 | – | – | – | – | 1.74 nM
B10 | 0.592 nM | 0.292 nM | 0.0556 nM | 3.51 nM | 0.292 nM
